Assays:
MEFs = assay: SA-β-Gal staining; format: cell-based, mouse; conditions: X-ray irradiation or doxorubicin (250 nM, 3 days)
Method: Staining was performed with the Senescence Detection Kit (Abcam, #ab65351) following the manufacturer’s protocol. Briefly, MEFs were fixed for 15 min with 1× fixation solution, washed with PBS, then stained overnight at 37 °C in 1× staining solution. Brightfield images were captured on the Zeiss Axio Imager M2 microscope.

[1] = system: soluble Ptk7 (sPtk7) shed by MEFs; assay: Western blot for sPtk7 in conditioned media; format: cell-based, mouse
Method: Twenty-four hours before collecting conditioned media (CM), MEFs were washed with serum-free DMEM twice, and serum-free DMEM was added. After 24 h in serum-free DMEM, this CM was collected, filtered using Steriflip filters (Millipore, #SE1M179M6) to remove cell debris, and concentrated using centrifugal filter units (Amicon ultra-15 centricon; Millipore, # UFC900324). To collect CM without sPtk7, TAPI-1 (Millipore, #59053) or GM6001 (Sigma-Aldrich, #364206) containing serum-free DMEM instead of serum-free DMEM was added to the cells. To inhibit Wnt secretion, IWP-L6 (Sigma-Aldrich, #504819) containing serum-free DMEM instead of serum-free DMEM was added to the cells. CM was filtered and dialyzed for 24–48 h to remove the inhibitors before concentration. Concentrated CM from equal numbers of MEFs was mixed with IntestiCult Organoid Growth Medium (Stem Cell Technologies, #06005) and added to the organoid cultures.
Conditioned media corresponding to the same number of cells were loaded for SDS–PAGE. Total cell and tissue lysates of mouse fibroblasts and intestine were prepared using RIPA lysis buffer (Thermo Fisher Scientific, #89900) with protease/phosphatase inhibitor (Thermo Fisher Scientific, #1861281). Protein concentration was measured with BCA protein assay kit (Thermo Fisher Scientific, #23227), and equal amount of proteins were loaded for SDS–PAGE. […]

[2] = system: cytosolic Ca2+ in mouse intestinal organoids; assay: live Ca2+ imaging of mouse intestinal organoids (GCaMP6f/tdTomato: baselined area under curve, peak number, height, width); format: cell-based; conditions: live organoids expressing GCaMP6f
Method: Z stacks were acquired every 10 s.
Z-stack images were converted to mean intensity projections and, where required; background was subtracted using a rolling ball algorithm. Segmentation was conducted on a max-projection over-time of the GCaMP6f channel using Cellpose’s pre-trained “Cytoplasm” classifier. Mean intensity traces were measured in each ROI over the time course in both the GCaMP6f and TdTomato channels using scikit-image[138]. Ca^2+ oscillation patterns were calculated in an unsupervised, automated manner using MATLAB. Mean intensity traces were smoothed using a Savitzky-Golay filter and peaks were identified using the “findpeaks” algorithm from the MATLAB Signal Processing Toolbox. Graphs for GCaMP6f/tdTomato fluorescence ratio, peak numbers, peak height, peak width and baselined area under the curve were generated using Python matplotlib and seaborn packages. Statistical analysis was performed using Python SciPy and scikit-post-hoc packages.

biotinylated Wnt3a = assay: ELISA binding to Wnt3a; set-up: species or system mouse; conditions: PTK7 with FZD7 CRD
Method: (§1) Proteins used in ELISAs were obtained from R&D Systems: PTK7-Fc (R&D Systems, #9799-TK), biotinylated Wnt3a (R&D Systems, #BT1324), biotinylated Wnt5a (R&D Systems, #BT645). […] Assay plates (384 Maxisorp plates, Nunc, # 464718) were prepared by incubation overnight with 30 µl/well Neutravidin (2 µg/ml, Thermo Fisher Scientific, #31055) in PBS at 4 °C. Plates were emptied and incubated with 100 µl/well of blocking buffer (PBS, 2% bovine serum albumin, 0.01% NaN3) for 1 h at room temperature with shaking. Blocking buffer was aspirated and plates were washed 8x with 70 µl/well of PBS-T. In parallel, bio-Wnt3a or bio-Wnt5a were incubated in helper plates (384 well plates, Nunc; #264574) with a dilution series of PTK7-Fc or FZD7-His in the presence or absence of FZD7-His as a competitor in assay diluent (PBS + 0.5 % BSA + 15 ppm ProClin 300 (Sigma-Aldrich, #48914-U) for 1 h at 4 °C. Protein mixtures (25 µl/well) were transferred from helper plates to 3 wells of assay plates (technical triplicates), and incubated for 1 h at 4 °C. Assay plates were aspirated and washed 8× with 70 µl/well of PBS-T. Binding was detected by 25 µl/well of anti-hIgG1-Fc-HRP (0.2 µg/ml, Thermo Fisher Scientific, #A-10648) or anti-His-tag-HRP (0.2 µg/ml, Abcam, #ab1187) in assay diluent, incubated for 1 h at 4 °C. […] Absorbance at 450 nm was recorded with a plate reader. […]

biotinylated Wnt5a = assay: ELISA binding to Wnt5a; set-up: species or system human/mouse (hmWnt5a); conditions: Wnt5a versus Wnt3a
Method: as §1

| binding to Wnt3a and Wnt5a, relative affinity (biotinylated Wnt5a) | Molecule | senescence (SA-β-gal) (MEFs) | levels of sPtk7 in conditioned media [1] | effect on cytosolic Ca2+ levels and oscillations [2] | competition for binding to Wnt3a or Wnt5a (biotinylated Wnt3a) |
| --- | --- | --- | --- | --- | --- |
| – | COc1cccc2c1C(=O)c1c(O)c3c(c(O)c1C2=O)C[C@@](O)(C(=O)CO)C[C@@H]3O[C@H]1C[C@H](N)[C@H](O)[C@H](C)O1 [doxorubicin] | confirmed senescence | contained higher levels of sPtk7 | – | – |
| bound Wnt5a with higher affinity | sPtk7: soluble/shed N-terminal extracellular domain of Ptk7 (protein, left off: Fc (human IgG1, from the anti-hIgG1-Fc detection antibody), end not stated, kept, soluble/shed N-terminal extracellular domain of Ptk7) AIVFIKQPSSQDALQGRRALLRCEVEAPGPVHVYWLLDGAPVQDTERRFAQGSSLSFAAVDRLQDSGTFQCVARDDVTGEEARSANASFNIKWIEAGPVVLKHPASEAEIQPQTQVTLRCHIDGHPRPTYQWFRDGTPLSDGQSNHTVSSKERNLTLRPAGPEHSGLYSCCAHSAFGQACSSQNFTLSIADESFARVVLAPQDVVVARYEEAMFHCQFSAQPPPSLQWLFEDETPITNRSRPPHLRRATVFANGSLLLTQVRPRNAGIYRCIGQGQRGPPIILEATLHLAEIEDMPLFEPRVFTAGSEERVTCLPPKGLPEPSVWWEHAGVRLPTHGRVYQKGHELVLANIAESDAGVYTCHAANLAGQRRQDVNITVATVPSWLKKPQDSQLEEGKPGYLDCLTQATPKPTVVWYRNQMLISEDSRFEVFKNGTLRINSVEVYDGTWYRCMSSTPAGSIEAQARVQVLEKLKFTPPPQPQQCMEFDKEATVPCSATGREKPTIKWERADGSSLPEWVTDNAGTLHFARVTRDDAGNYTCIASNGPQGQIRAHVQLTVAVFITFKVEPERTTVYQGHTALLQCEAQGDPKPLIQWKGKDRILDPTKLGPRMHIFQNGSLVIHDVAPEDSGRYTCIAGNSCNIKHTEAPLYVVDKPVPEESEGPGSPPPYKMIQT | – | – | modulate cytosolic Ca^2+ oscillations | unaffected by a saturating amount of FZD7 CRD |

— paper PMC9834240, “Senescent cells perturb intestinal stem cell differentiation through Ptk7 induced noncanonical Wnt and YAP signaling” (Nature Communications, 2023)
